What is called Kd is the constant that tells how readily two partners part at equilibrium. Low readings indicate a tighter complex, high ones a looser complex.

For 5 molecules, Kd results are on record in PMC2879519.

Common to all, as to assay: fluorescence quenching titration
Data set [1] concerns the target SMC2 hinge long (mSMC2h of mSMC2h4h-l);SMC4 hinge long (mSMC4h of mSMC2h4h-l) (mouse;mouse) (UniProt Q8CG48+Q8CG47).
In data set [2] the target is SMC2 hinge long (mSMC2h of mSMC2h4h-l);SMC4 hinge long (mSMC4h of mSMC2h4h-l) (mouse;mouse, UniProt Q8CG48;Q8CG47 492-680;581-766, |).
SMC2 hinge long (mSMC2h of mSMC2h4h-l);SMC4 hinge long (mSMC4h of mSMC2h4h-l), sequence (Q8CG48 492-680, chain 1 of 2): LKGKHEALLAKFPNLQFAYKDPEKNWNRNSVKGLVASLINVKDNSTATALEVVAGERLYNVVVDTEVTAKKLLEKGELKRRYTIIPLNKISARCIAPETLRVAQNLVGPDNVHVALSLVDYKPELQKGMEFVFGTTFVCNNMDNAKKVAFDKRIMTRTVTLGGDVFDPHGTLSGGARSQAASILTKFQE
SMC2 hinge long (mSMC2h of mSMC2h4h-l);SMC4 hinge long (mSMC4h of mSMC2h4h-l), sequence (Q8CG47 581-766, chain 2 of 2): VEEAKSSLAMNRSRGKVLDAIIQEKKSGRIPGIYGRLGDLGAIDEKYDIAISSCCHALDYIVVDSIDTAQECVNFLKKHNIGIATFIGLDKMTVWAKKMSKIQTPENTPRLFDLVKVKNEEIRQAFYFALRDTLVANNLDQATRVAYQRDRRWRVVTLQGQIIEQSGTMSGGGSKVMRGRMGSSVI
Data set [3] deals with SMC2 hinge long K566E;SMC4 hinge long (mSMC4h of mSMC2h4h-l) (mouse;mouse, UniProt Q8CG48;Q8CG47 492-680;581-766, K566E|).
SMC2 hinge long K566E;SMC4 hinge long (mSMC4h of mSMC2h4h-l), sequence (Q8CG48 492-680 K566E, chain 1 of 2): as the sequence (Q8CG48 492-680, chain 1 of 2) above, with K75E counted along it
SMC2 hinge long K566E;SMC4 hinge long (mSMC4h of mSMC2h4h-l), sequence (Q8CG47 581-766, chain 2 of 2): as the sequence (Q8CG47 581-766, chain 2 of 2) above
The target in data set [4] is SMC2 hinge long K566E;SMC4 hinge long K657E (mouse;mouse, UniProt Q8CG48;Q8CG47 492-680;581-766, K566E|K657E).
SMC2 hinge long K566E;SMC4 hinge long K657E, sequence (Q8CG48 492-680 K566E, chain 1 of 2): as the sequence (Q8CG48 492-680, chain 1 of 2) above, with K75E counted along it
SMC2 hinge long K566E;SMC4 hinge long K657E, sequence (Q8CG47 581-766 K657E, chain 2 of 2): as the sequence (Q8CG47 581-766, chain 2 of 2) above, with K77E counted along it
Data set [5] addresses SMC2 hinge long K613E;SMC4 hinge long K698E (mouse;mouse, UniProt Q8CG48;Q8CG47 492-680;581-766, K613E|K698E).

SMC2 hinge long (mSMC2h of mSMC2h4h-l);SMC4 hinge long (mSMC4h of mSMC2h4h-l) (mouse;mouse), sequence (Q8CG48 492-680, chain 1 of 2): as the sequence (Q8CG48 492-680, chain 1 of 2) above
SMC2 hinge long (mSMC2h of mSMC2h4h-l);SMC4 hinge long (mSMC4h of mSMC2h4h-l) (mouse;mouse), sequence (Q8CG47 581-766, chain 2 of 2): as the sequence (Q8CG47 581-766, chain 2 of 2) above
SMC2 hinge long K613E;SMC4 hinge long K698E, sequence (Q8CG48 492-680 K613E, chain 1 of 2): as the sequence (Q8CG48 492-680, chain 1 of 2) above, with K122E counted along it
SMC2 hinge long K613E;SMC4 hinge long K698E, sequence (Q8CG47 581-766 K698E, chain 2 of 2): as the sequence (Q8CG47 581-766, chain 2 of 2) above, with K118E counted along it

Molecule “CATCCTGTCCGCTGC / GCAGCGGACAGGATGTTTTTTTTTTTTTTT [30-mer ds-ssDNA-3']” yielded a Kd in data set [1] of 1.55 µM.

In turn, “CATCCTGTCCGCTGC / TTTTTTTTTTTTTTTGCAGCGGACAGGATG [30-mer ds-ssDNA-5']” yielded a Kd in data set [1] of 1.77 µM. Same read-out and setting: the figure for “CATCCTGTCCGCTGC / CCGGAGAGCATCTCG / GCAGCGGACAGGATGTTTTTTTTTTTTTTTCGAGATGCTCTCCGG [45-mer ds-ss-dsDNA]” is 0.66 µM.

B1: 30-mer ssDNA (ssDNA)
DNA: TTTTTTTTTTTTTTTTTTTTTTTTTTTTTT
Consider B1, for which the Kd in data set [2] came to 0.45 ± 0.04 µM; in data set [3], 1.8 ± 0.08 µM; in data set [4] it was 3.26 ± 0.58 µM; in data set [5], 2.95 ± 0.3 µM.

B2: 15-mer ssDNA (ssDNA)
DNA: TTTTTTTTTTTTTTT
Take B2: in data set [2], the Kd was 3.21 ± 0.14 µM.
